Assay results taken from publication PMC10442857, “Cellular Uptake of a Fluorescent Ligand Reveals Ghrelin O-Acyltransferase Interacts with Extracellular Peptides and Exhibits Unexpected Localization for a Secretory Pathway Enzyme” (ACS Chemical Biology, 2023).
Values belong to the molecule of their own block, whether it stands above or below them. Peptide text beside a SMILES is read from it.

Tests used:
22Rv1 cells = assay: GOAT ligand labeling and imaging in 22Rv1 prostate cancer cells; format: cell-based, human; settings: 5 μM ligand 15 with 40 μM ligand 12, 30 min RT, p < 0.05
Experimental: Prostate cancer (PCa) cells LNCaP (ATCC, CRL-1740) and 22Rv1 (ATCC, CRL-2505) were maintained in a 75 mL vented tissue culture flask (Celltreat) at 37 °C with 5% CO2 in complete 1× RPMI (Roswell Park Memorial Institute) media supplemented with 10% FBS and 1% (v/v) penicillin-streptomycin (Mediatech). Cell lines were passaged upon reaching 70% confluency (∼2–3 days). For microscopy studies, PCa cells were plated in 2 mL of complete 1× RPMI in a six-well plate (Corning) containing sterile 12 mm poly-L-lysine coated glass coverslips (Neuvitro, GG-12-PDL) in each well. The cells were allowed to adhere and reach 70% confluence on the coverslips prior to labeling.
Upon reaching confluency, coverslips with attached PCa cells were treated with ligands at the indicated concentration for 30 min at RT (unless otherwise stated). Cells were washed 3× with 1× phosphate-buffered saline (PBS) (Cellgro) and then fixed for immunofluorescence staining as described above. For ligand competition experiments, cells were incubated with 5 μM ligand 15 alone, 5 μM ligand 15 with 40 μM ligand 12, or PBS alone for 30 min at RT. […]
The fluorescence range of intensity was adjusted identically for each image series. […] Total cell fluorescence was determined by calculating the integrated density of mean gray value in a cell area compared to background as shown in eqs 4 and 5. […]

GHSR (GHS-R1a) = target: T1, GHSR (GHS-R1a) (Homo sapiens, UniProt Q92847); assay: biochemical; format: binding; settings: lower limit from test at 100 µM; read-out: IC50 against GHSR
T1 construct: expressed in transfected cells; host or cells: HEK 293 cells transfected with GHS-R1a (membrane suspension)
Experimental: Peptide binding affinity for the ghrelin receptor was determined using a competitive radioligand-displacement binding assay,[22] with details provided in the Supporting Information. […]
GHSR receptor binding assays. Peptide binding affinity for the ghrelin receptor was determined using a competitive radioligand-displacement binding assay.1 Assays were performed using GHS-R1a transfected HEK 293 cells as the receptor source and human His[125I]-ghrelin(1−28) (PerkinElmer Inc. NEX388010UC ) as the radioligand. Human ghrelin(1−28) was used as a reference to ensure the validity of the results. A suspension of membrane from HEK 293/GHS-R1a cells (100,000 cells per assay tube) were incubated with ghrelin(1−8) peptide analogues (at […]
ghrelin (15 pM per assay tube) in binding buffer (25 mM HEPES, 5 mM magnesium chloride, 1 mM calcium chloride, 2.5 mM EDTA, and 0.4% BSA, pH 7.4). The resulting suspension was incubated for 20 min under shaking (550 rpm) at 37 °C. Unbound [ 125I]-ghrelin was removed and the amount of [ 125I]-ghrelin bound to the membranes was measured by γ counter. IC 50 values were determined by nonlinear regression analysis to fit a four-parameter dose−response curve using Prism 6 (version 6.0c). All binding assays were performed in triplicate. […]

[1] = target: human ghrelin O-acyltransferase (hGOAT) of the hGOAT inhibition assays (human) (UniProt Q96T53)
[2] = target: T2, human ghrelin O-acyltransferase (hGOAT) of the hGOAT inhibition assays (human, UniProt Q96T53 1-435); assay: cell-based or functional assay
T2 sequence (looked up): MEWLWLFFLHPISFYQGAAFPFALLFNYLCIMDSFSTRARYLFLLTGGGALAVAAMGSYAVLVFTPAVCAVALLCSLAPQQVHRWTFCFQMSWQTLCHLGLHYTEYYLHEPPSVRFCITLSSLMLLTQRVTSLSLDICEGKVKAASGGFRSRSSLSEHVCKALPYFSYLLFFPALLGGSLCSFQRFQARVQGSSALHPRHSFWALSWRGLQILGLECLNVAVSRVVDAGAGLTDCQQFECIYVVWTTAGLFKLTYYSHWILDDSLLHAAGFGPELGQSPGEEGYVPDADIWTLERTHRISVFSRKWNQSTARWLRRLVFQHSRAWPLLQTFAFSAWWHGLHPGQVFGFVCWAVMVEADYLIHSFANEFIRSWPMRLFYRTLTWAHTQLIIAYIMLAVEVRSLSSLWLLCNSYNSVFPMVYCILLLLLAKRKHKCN

IC50 (GHSR (GHS-R1a)): ≥ 100000 nM
Molecule: CC(C)C[C@H](NC(=O)[C@H](Cc1cccc2ccccc12)NC(=O)[C@H](CN)NC(=O)[C@H](CO)NC(=O)CN)C(=O)N[C@@H](CO)C(=O)N1CCC[C@H]1C(=O)N[C@H](C(N)=O)[C@@H](C)O [ligand 12, H-GS-Dap-Nal-1-LSPT-NH2] (HELM PEPTIDE1{G.S.[NC[C@H](N[*:1])C(=O)[*:2]].[O=C([C@H](Cc1cccc2ccccc12)N[*:1])[*:2]].L.S.P.T.[am]}$$$$V2.0)
effect of unlabeled competitor on ligand 15 internalization (total cell fluorescence) (22Rv1 cells): significant reduction of ligand 15 internalization

inhibition of hGOAT activity by ligand 15 (IC50) [1]: 17 nM
Molecule: ligand 15, H-GS-Dap-Nal-1-LSPTK(SulfoCy5)-NH2 (peptide)

inhibition of hGOAT activity (IC50 against hGOAT) [2]: > 100000 nM
B1: ligand 5, H-Inp-S-Dap-FLSPY-NH2 (peptide)
chain: XSXFLSPY
HELM: PEPTIDE1{[O=C(C1CCNCC1)[*:2]].S.[NC[C@H](N[*:1])C(=O)[*:2]].F.L.S.P.Y.[am]}$$$$V2.0
SMILES: CC(C)C[C@H](NC(=O)[C@H](Cc1ccccc1)NC(=O)[C@H](CN)NC(=O)[C@H](CO)NC(=O)C1CCNCC1)C(=O)N[C@@H](CO)C(=O)N1CCC[C@H]1C(=O)N[C@@H](Cc1ccc(O)cc1)C(N)=O

inhibition of hGOAT activity (IC50 against hGOAT) [2]: 6 nM
B2: ligand 12, H-GS-Dap-Nal-1-LSPT-NH2 (peptide)
chain: GSXXLSPT
HELM: PEPTIDE1{G.S.[NC[C@H](N[*:1])C(=O)[*:2]].[O=C([C@H](Cc1cccc2ccccc12)N[*:1])[*:2]].L.S.P.T.[am]}$$$$V2.0
SMILES: CC(C)C[C@H](NC(=O)[C@H](Cc1cccc2ccccc12)NC(=O)[C@H](CN)NC(=O)[C@H](CO)NC(=O)CN)C(=O)N[C@@H](CO)C(=O)N1CCC[C@H]1C(=O)N[C@H](C(N)=O)[C@@H](C)O
